Experimental data published in patent US20240325562A1, “INTERNALIZING BINDING MOLECULES” (LinXis B.V., priority 2020, published 2024).

Tests used:
PDGFRB = target: T1, PDGFRB (Rattus norvegicus, UniProt Q05030); test: Staining of rat tissue cryo-sections for PDGFRB; conditions: 50 nM, overnight 4° C.
T1 construct: from tissue; host or cells: cryo-sections of rat tissues (liver, kidney, spleen, heart, ileum, brain) of BDL and SHAM rats
Protocol: To evaluate whether SP02-SP26-ABD bound to PDGFRB as (over-) expressed in the cirrhotic liver, various cryo-sections of tissues (liver, kidney, spleen, heart, ileum, brain) obtained from both healthy (SHAM) and cirrhotic (BDL) rats (preparation procedure as outlined in example 15) were stained with SP02-SP26-ABD conjugated to Alexa Fluor 647 (SP02-SP26-ABD-A647, conjugation method as described in example 10.2.). Staining was performed with 50 nM SP02-SP26-ABD-AF647 during overnight incubation at 4° C. Subsequently, the sections were washed and stained with DAPI, mounted with mowiol mounting medium (Merck), and imaged on a Zeiss LSM700 laser scanning confocal microscope with a 20× objective. […] In the tissues other than the liver, no upregulation of PDGFRB was observed.

IGF2R [1] = target: T2, IGF2R (Rattus norvegicus, UniProt G3V824); test: Staining of rat tissue cryo-sections for IGF2R; conditions: 50 nM, overnight 4° C.
T2 construct: from tissue; host or cells: cryo-sections of rat tissues (liver, kidney, spleen, heart, ileum, brain); Sprague-Dawley BDL and SHAM rats
Protocol: To evaluate whether F11E8-ABD bound to IGF2R as (over-) expressed in the cirrhotic liver, various cryo-sections of tissues (liver, kidney, spleen, heart, ileum, brain) obtained from both healthy (SHAM) and cirrhotic (BDL) rats (preparation procedure as outlined in example 15) were stained with 13F11-13E8-ABD conjugated to Alexa Fluor 647 (13F11-13E8-ABD-A647, conjugation method as described in example 10.2.). Staining was performed with 50 nM 13F11-13E8-ABD-AF647 during overnight incubation at 4° C. Subsequently, the sections were washed and stained with DAPI, mounted with mowiol mounting medium (Merck) and imaged on a Zeiss LSM700 laser scanning confocal microscope with a 20× objective. […] In the tissues other than the liver, no upregulation of IGF2R was observed.

[2] = system: BDL rats (portal hypertension); test: Portal pressure and mean arterial pressure in BDL and SHAM rats; type: in vivo, Sprague-Dawley rats; conditions: 5 mg/kg i.v.
Description: To evaluate in vivo functionality, 13F11-13E8-ABD was conjugated to a Y27632-maleimide modified functional moiety (1e) (the test conjugate) as outlined in example 10.2. To provide a comparator, a similar amount of 13F11-13E8-ABD was conjugated to N-ethylmaleimide in a parallel and similar preparation (the mock conjugate).
To establish animals displaying portal hypertension (Klein et al, Fibrosis: Methods and Protocols. Methods in Molecular Biology. 2017 (1627): 91-122.), Sprague-Dawley rats were subjected to bile duct ligation (BDL) through median laparotomy under ketamine/xylazine-induced anaesthesia i.p. (BDL rats). To provide healthy controls, a second cohort of rats was subjected to the same surgical procedure except for actual ligation of the bile duct (SHAM rats). Surgery was followed-up with pain control medication (carprofen s.c.). Approximately five weeks after surgery, ketamine/xylazine anesthetized rats were subjected to median laparotomy, after which one catheter was inserted through an ileocecal vein to the portal vein, and one catheter was inserted into the femoral artery. The catheters were connected to pressure recording equipment, for assessment of portal pressure and mean arterial pressure, respectively.
(§1) After catheterization and hemodynamic stabilization, rats were dosed with 5 mg/kg test conjugate or mock conjugate i.v. through the lateral tail vein and pressures were monitored continuously (example 15.1.). One hour after dosing, animals were sacrificed after which tissues were isolated for ex vivo analysis (example 15.2.).

IGF2R [3] = target: T2, IGF2R; test: In situ detection of infused test conjugate in liver sections; type: in vivo; conditions: for detection of conjugate in liver: one hour after 5 mg/kg i.v., anti-VHH antiserum
Protocol: as §1
After isolation, livers obtained from test conjugate-infused BDL and SHAM rats were fixated with paraformaldehyde, soaked in 30% (w/v) sucrose in PBS, and sectioned using cryo-microtome.
To detect the test conjugate in situ, tissue sections were stained with a rabbit polyclonal anti-VHH antiserum recognizing the 13F11-13E8 moiety of the conjugate, followed by an anti-rabbit antibody conjugated to the fluorophore Alexa-488 for visualization by confocal fluorescence microscopy (cf. example 14).

hPDGFRB = hPDGFRB (Homo sapiens, UniProt P09619); test: Competition assays of PDGFRB VHHs on hPDGFRB; type: binding; conditions: IRDye800-conjugated SP26P as reporter
Protocol: (§2) Biparatopic VHH constructs contain two VHH which bind to a different epitope, i.e. which are non-competitive binders. To identify (a) pair(s) of non-competitive binders, competition assays were performed. In the example shown, an Alexa fluor-conjugate of the high affine VHH 13F11 was used as the reporter VHH (13F11-A647, see example 10.2). In the assay, a non-saturating amount (10 nM) of 13F11-A647 was incubated with immobilized hIGF2R-ECD in the presence or absence of 250 nM unconjugated competitor VHH to allow competition to take place.
(§3) Similar as to in example 6.1, competition assays were performed to identify unique hPDGFRB- or rPDGFRB binders. Across 10 PDGFRB-binding VHHs obtained from libraries 1 and 2 (e.g. the VHH raised against hPDGFRB), four main groups were identified being first SP01P, SP02P, SP07P and SP13P, second SP05P, SP08P and SP10P, third SP12P and SP20P and finally SP14P. All VHH within each of the first three groups mutually competed.
To evaluate whether the obtained VHHs would qualify as building blocks for multivalent VHH constructs that bind hPDGFRB as well as rPDGFRB (e.g. ‘species cross-reactive’ VHH constructs), competition assays were performed using the most promising VHHs SP02 (raised against hPDGFRB) and SP26P (raised against rPDGFRB).

rPDGFRB = rPDGFRB (Rattus norvegicus, UniProt Q05030); test: Competition assays of PDGFRB VHHs on rPDGFRB; type: binding; conditions: VHHs from libraries 3 and 4
Protocol: as §2, §3

hIGF2R-ECD = target: T3, hIGF2R-ECD (Homo sapiens, UniProt P11717); test: Competition assay with 13F11-A647 as reporter VHH on immobilized hIGF2R-ECD; type: binding; conditions: 10 nM 13F11-A647, 250 nM unconjugated competitor VHH
T3 construct: immobilized recombinant human extracellular domain of IGF2R (hIGF2R-ECD) was used
Protocol: With the term “compete” is meant that in a competition assay, such as for instance described in Example 6 of the present invention, the addition of a binding molecule induces a significant decrease in binding of a given VHH, i.e., the VHH to which the competing is determined. “Significant” in this respect is preferably a decrease of >5%, preferably >10% when 250 nM of a binding molecule is added to 10 nM of a fluorescence labelled VHH in an ELISA. […] The same test conditions and threshold apply to a binding molecule directed to PDGFRB when determining whether a binding molecule competes with a given VHH.
as §2

[4] = system: A549 cells that endogenously express hIGF2R; test: Internalization by fluorescence microscopy after acid wash, A549 cells; type: cell-based, human; conditions: 25 nM Alexa fluor 647 conjugate
Protocol: (§4) First, Alexa fluor 647-conjugates of the VHH 13F11 and the biparatopic VHH construct […] were added to A549 cells that endogenously express hIGF2R (FIG. 16A), NIH 3T3 2.2 cells that were transiently transfected with hIGF2R (FIG. 16B), or mock transfected NIH 3T3 2.2 cells (as a negative control). For this, the cells were incubated with 25 nM of the VHH or the VHH construct. Before fluorescent microscopy readout, to ensure that only signal of internalized VHH or mouse anti-IGF2R was present, an acid wash (0.2M glycine-HCl, 150 mM NaCl, pH 2.3) was used to remove VHH or mouse anti-IGF2R bound to the target receptors on the cell surface. The efficiency of the acid wash procedure was verified by incubating the hIGF2R transfected NIH 3T3 2.2 cells with 13F11-13E8-A647 on ice and subsequently treating these cells with an acid wash while remaining on ice to prevent internalization (FIG. 16D). […] Summarizing, biparatopic 13F11-13E8 clearly internalizes in cells expressing hIGF2R on the cell surface.

[5] = system: NIH 3T3 2.2 cells that were transiently transfected with hIGF2R; test: Internalization by fluorescence microscopy after acid wash, hIGF2R-transfected NIH 3T3 2.2 cells; type: cell-based, human; conditions: 25 nM Alexa fluor 647 conjugate
Protocol: as §4

[6] = system: mock transfected NIH 3T3 2.2 cells; test: Internalization by fluorescence microscopy after acid wash, mock transfected cells; type: cell-based; conditions: 25 nM Alexa fluor 647 conjugate, negative control cells
Protocol: as §4

[7] = BDL rats, monitored for one hour

T2 sequence (G3V824 36-2481): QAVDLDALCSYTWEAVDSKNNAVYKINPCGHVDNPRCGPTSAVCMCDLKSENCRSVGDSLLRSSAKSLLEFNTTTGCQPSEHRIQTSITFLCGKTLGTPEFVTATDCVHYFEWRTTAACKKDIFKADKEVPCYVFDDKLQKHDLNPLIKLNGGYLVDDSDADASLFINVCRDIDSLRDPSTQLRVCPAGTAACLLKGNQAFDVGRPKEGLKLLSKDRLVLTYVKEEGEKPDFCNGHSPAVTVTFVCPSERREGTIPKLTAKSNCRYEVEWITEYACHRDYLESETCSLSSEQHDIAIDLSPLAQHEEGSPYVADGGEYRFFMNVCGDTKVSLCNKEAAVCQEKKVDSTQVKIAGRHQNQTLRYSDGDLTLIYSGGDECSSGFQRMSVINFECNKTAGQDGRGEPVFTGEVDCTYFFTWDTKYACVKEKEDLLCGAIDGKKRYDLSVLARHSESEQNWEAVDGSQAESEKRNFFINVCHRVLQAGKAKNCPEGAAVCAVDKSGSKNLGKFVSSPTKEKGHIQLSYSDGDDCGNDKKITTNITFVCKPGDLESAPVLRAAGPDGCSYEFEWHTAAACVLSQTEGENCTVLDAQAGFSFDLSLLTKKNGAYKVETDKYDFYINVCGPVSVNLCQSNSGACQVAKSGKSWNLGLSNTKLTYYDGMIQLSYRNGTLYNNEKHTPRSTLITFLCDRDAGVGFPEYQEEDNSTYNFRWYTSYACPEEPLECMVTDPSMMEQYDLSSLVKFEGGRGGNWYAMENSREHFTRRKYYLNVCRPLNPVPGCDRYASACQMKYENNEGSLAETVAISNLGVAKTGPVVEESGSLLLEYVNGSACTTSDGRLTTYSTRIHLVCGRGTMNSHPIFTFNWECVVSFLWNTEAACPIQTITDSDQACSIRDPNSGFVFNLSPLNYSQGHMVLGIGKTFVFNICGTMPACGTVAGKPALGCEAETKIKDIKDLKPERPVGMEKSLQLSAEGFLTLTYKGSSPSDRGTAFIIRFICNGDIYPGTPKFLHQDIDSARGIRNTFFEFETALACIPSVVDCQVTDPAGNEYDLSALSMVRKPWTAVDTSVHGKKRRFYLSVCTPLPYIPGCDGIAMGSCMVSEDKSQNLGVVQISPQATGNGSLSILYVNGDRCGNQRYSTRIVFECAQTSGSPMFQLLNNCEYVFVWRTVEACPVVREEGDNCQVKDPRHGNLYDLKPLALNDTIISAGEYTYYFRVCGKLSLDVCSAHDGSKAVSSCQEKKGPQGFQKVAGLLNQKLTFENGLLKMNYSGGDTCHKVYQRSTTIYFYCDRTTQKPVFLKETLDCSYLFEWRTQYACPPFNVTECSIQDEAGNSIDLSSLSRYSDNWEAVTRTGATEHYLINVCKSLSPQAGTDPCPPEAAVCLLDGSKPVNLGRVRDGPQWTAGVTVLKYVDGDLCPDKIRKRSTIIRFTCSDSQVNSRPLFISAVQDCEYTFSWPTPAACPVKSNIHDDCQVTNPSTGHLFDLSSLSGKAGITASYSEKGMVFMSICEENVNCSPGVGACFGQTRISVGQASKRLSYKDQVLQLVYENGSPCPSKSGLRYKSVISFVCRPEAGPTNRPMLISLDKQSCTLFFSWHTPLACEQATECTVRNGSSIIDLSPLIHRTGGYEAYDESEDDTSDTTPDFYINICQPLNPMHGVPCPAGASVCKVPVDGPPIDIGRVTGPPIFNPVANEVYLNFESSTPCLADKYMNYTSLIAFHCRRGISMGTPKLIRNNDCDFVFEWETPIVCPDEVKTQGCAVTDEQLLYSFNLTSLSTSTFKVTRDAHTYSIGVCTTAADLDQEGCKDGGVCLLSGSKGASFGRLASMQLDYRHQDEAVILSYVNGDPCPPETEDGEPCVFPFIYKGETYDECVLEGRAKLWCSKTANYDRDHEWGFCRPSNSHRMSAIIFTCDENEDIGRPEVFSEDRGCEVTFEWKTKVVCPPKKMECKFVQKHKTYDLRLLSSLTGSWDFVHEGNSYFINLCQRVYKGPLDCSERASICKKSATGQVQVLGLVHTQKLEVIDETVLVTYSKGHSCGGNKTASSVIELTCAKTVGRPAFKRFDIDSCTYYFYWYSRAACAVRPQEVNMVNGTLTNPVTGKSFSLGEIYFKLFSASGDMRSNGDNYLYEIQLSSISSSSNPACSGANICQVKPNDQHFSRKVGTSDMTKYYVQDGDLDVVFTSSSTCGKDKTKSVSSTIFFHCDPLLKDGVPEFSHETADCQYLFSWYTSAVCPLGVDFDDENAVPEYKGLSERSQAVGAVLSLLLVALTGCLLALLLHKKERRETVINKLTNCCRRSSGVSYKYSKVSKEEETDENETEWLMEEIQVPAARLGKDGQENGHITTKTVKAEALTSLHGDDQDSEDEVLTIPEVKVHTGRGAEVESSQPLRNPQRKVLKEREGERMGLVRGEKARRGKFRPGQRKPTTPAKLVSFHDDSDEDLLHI
T1 sequence (Q05030 32-1097): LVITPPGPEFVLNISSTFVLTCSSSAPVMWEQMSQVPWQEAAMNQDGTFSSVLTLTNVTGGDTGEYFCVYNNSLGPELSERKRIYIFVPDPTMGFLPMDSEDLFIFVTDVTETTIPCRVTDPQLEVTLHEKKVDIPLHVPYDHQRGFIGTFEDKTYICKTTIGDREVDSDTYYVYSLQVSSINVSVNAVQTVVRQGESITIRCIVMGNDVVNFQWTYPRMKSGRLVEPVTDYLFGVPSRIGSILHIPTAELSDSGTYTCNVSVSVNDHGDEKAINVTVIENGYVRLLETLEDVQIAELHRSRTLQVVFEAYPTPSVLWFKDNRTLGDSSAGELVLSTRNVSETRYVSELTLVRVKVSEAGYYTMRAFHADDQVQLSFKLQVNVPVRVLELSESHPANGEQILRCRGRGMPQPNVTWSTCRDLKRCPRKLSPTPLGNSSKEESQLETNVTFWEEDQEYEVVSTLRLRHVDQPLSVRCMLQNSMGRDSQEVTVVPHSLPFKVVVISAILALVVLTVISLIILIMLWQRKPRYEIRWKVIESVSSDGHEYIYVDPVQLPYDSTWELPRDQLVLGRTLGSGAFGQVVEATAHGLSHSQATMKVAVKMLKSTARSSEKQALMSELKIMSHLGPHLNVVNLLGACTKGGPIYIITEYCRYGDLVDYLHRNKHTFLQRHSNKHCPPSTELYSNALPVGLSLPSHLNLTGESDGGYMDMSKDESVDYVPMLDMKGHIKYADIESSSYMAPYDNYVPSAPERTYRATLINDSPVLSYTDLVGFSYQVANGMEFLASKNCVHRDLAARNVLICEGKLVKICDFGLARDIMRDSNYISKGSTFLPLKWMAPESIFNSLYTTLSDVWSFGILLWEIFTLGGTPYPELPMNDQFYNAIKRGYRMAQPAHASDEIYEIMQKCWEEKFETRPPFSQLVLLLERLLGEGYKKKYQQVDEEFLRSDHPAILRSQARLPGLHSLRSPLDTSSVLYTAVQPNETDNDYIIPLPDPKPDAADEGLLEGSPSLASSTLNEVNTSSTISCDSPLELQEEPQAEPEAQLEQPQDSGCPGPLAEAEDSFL
Sequence of rPDGFRB (Q05030 32-1097): as above
Sequence of hPDGFRB (P09619 33-532 limits assumed): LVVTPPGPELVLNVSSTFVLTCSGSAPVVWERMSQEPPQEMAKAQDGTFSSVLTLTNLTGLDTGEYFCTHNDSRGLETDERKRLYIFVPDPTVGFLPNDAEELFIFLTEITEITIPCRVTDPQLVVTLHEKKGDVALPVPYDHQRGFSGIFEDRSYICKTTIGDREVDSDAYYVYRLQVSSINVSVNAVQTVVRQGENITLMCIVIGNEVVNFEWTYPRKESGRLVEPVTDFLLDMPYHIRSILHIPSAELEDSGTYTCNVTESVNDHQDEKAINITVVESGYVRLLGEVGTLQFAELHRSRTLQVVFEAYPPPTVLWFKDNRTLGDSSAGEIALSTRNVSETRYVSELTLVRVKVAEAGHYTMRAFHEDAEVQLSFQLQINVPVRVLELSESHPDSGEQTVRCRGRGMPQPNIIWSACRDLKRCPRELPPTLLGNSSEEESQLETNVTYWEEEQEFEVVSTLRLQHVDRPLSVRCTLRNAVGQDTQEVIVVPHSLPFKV

B1: SP02-SP26-ABD-AF647: SP02-SP26-ABD conjugated to Alexa Fluor 647 (conjugate)
chain: EVQLVESGGGLVQAGGSLRLSCAASESISSIEQMGWFRQAPGKQRALVAINTYGGRTVYTNSVEGRFTMSRDSAKNMVYLQMTSLEPEDTAVYYCYAQTTAWRGGVWGQGTQVTVSSGGGGSGGGGSGGGGSEVQLVESGGGLVQAGGSLRLSCAASGRSFSSSVMGWFRQTPGKEREFVAATRWTAASTHYADSVKGRFTISRDHAENAVFLQMNSLKPEDTAVYYCAAGNYLDTAQYRYNYWGQGTQVTVSS
modifications: left off: large carriers; small tags and cut ends
In the case of B1, the “staining of cirrhotic (BDL) rat liver” value (PDGFRB) is reported as “strongly stains activated fibroblasts” and the “staining of normal (SHAM) rat liver” value (PDGFRB) is reported as “only background signal was detected”.

B2: 13F11-13E8-ABD-AF647: 13F11-13E8-ABD conjugated to Alexa Fluor 647 (conjugate)
chain: EVQLVESGGRLVQPGDSLRLSCAASGRTFSDNAMGWFRQAPGKERRFVAGISWAGGSTYYSDSVKGRFTISRDNAKNTVYLQMNSLKPEDTAVYYCAAGLRAWVQRMPKDYNYWGQGTQVTVSSGGGGSGGGGSGGGGSEVQLVESGGGLVQAGGSLRLSCAASRSISPMGWYRQAPGKQRELVAIMPSSGPPIYADSVQGRFTISRDNAKNTVYLQMNSLKPEDTAVYYCNVGGGYWGQGTQVTVSS
modifications: left off: large carriers; small tags and cut ends
For B2, the “staining of cirrhotic (BDL) rat liver” value (IGF2R [1]) was “strongly stains activated fibroblasts” and the “staining of normal (SHAM) rat liver” value (IGF2R [1]) was “only background signal was detected”.

B3: test conjugate: 13F11-13E8-ABD conjugated to a Y27632-maleimide modified functional moiety (1e) (conjugate)
chain: EVQLVESGGRLVQPGDSLRLSCAASGRTFSDNAMGWFRQAPGKERRFVAGISWAGGSTYYSDSVKGRFTISRDNAKNTVYLQMNSLKPEDTAVYYCAAGLRAWVQRMPKDYNYWGQGTQVTVSSGGGGSGGGGSGGGGSEVQLVESGGGLVQAGGSLRLSCAASRSISPMGWYRQAPGKQRELVAIMPSSGPPIYADSVQGRFTISRDNAKNTVYLQMNSLKPEDTAVYYCNVGGGYWGQGTQVTVSS
modifications: non-natural residues; left off: large carriers; small tags and cut ends
In the case of B3, the “mean arterial pressure (MAP)” value [2, 7] is reported as “remained constant”, the “portal pressure (PP)” value [2, 7] is reported as “gradual decrease of portal pressure” and the “portal or arterial pressure” value ([2]; SHAM rats) is reported as “neither the test conjugate nor the mock conjugate affected portal or arterial pressure”. For the same molecule, the “detection of conjugate in liver” value (IGF2R [3]; BDL rats) was “detected in the liver of BDL rats”, the “distribution in liver versus (tissue) distribution of IGF2R” value (IGF2R [3]; BDL rats, second staining with 13F11-13E8-A647) was “overlapped” and the “detection of conjugate in liver” value (IGF2R [3]; SHAM rats) was “not in the liver of SHAM rats”.

B4: SP26P: VHH single domain antibody targeting PDGFRB, SEQ ID NO: 153 (protein)
VHH: EVQLVESGGGLVQAGGSLRLSCAASGRSFSSSVMGWFRQTPGKEREFVAATRWTAASTHYADSVKGRFTISRDHAENAVFLQMNSLKPEDTAVYYCAAGNYLDTAQYRYNYWGQGTQVTVSS
With B4 the “competition between SP02 and SP26P” value (hPDGFRB) was “did not compete” and the “epitope compared to SP27P, SP28P, SP30P, SP31P and SP36P” value (rPDGFRB) was “unique epitope”.

B5: 13F11: VHH single domain antibody targeting IGF2R, SEQ ID NO: 273 (protein)
VHH: EVQLVESGGRLVQPGDSLRLSCAASGRTFSDNAMGWFRQAPGKERRFVAGISWAGGSTYYSDSVKGRFTISRDNAKNTVYLQMNSLKPEDTAVYYCAAGLRAWVQRMPKDYNYWGQGTQVTVSS
With B5 the “competition with reporter VHH 13F11-A647” value (hIGF2R-ECD) was “competed with 13F11-A647”, the internalization [4] was “no internalization was observed” and the internalization [5] was “internalized”. The internalization [6] was “no internalization was observed”.
